Assay results published in IntAct's records for PubMed 9804817.

B1: Proline-serine-threonine phosphatase-interacting protein 2 (Mus musculus), Q99M15 (parent)
chain: MTGSLFKGNFWSTDILSTIGYDSIIQHLNNGRKNCKEFEDFLKERASIEEKYGKDLLNLSRKKPCGQSEINTLKRALEVFKQQVDNVAQCHIQLAQTLREEARKMEEFREKQKLQRKKTETIMDAAHKQRNAQFKKAMDAKKNYEQKCRDKDEAEQAVHRSANVANQRQQEKLFVKLATSKTAVEDSDKAYMLHINMLEKVREDWQSEHIKACEVFEAQECERINFFRNALWLHLNQLSQQCVANDEMYEQVRKSLETCSIEKDIQYFVNQRKTGQTPPAPIMYENFYSPQRNAAPPGKTTGPNPARRGPLPVPKRIPDDPDYSVVEDYSLLYQ
partner: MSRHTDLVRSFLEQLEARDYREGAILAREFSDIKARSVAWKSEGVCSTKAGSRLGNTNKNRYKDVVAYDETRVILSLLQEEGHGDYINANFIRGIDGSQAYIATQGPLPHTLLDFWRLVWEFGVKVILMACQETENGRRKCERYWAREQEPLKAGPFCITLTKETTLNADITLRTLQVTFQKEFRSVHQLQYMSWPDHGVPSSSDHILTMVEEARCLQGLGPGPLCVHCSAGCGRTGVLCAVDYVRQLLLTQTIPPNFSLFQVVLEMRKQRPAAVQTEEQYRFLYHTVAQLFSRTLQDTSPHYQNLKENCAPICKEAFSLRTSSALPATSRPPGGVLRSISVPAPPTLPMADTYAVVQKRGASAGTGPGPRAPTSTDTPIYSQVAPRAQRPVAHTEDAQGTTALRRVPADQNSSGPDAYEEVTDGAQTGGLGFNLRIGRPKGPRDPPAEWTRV
B2: Proline-serine-threonine phosphatase-interacting protein 1 (Mus musculus), P97814 (parent)
chain: MMAQLQFRDAFWCRDFTAHTGYEVLLQRLLDGRKMCKDVEELLRQRAQAEERYGKELVQIARKAGGQTEMNSLRTSFDSLKQQTENVGSAHIQLALALREELRSLEEFRERQKEQRKKYEAIMDRVQKSKLSLYKKTMESKKAYDQKCRDADDAEQAFERVSANGHQKQVEKSQNKAKQCKESATEAERVYRQNIEQLERARTEWEQEHRTTCEAFQLQEFDRLTILRNALWVHCNQLSMQCVKDDELYEEVRLTLEGCDVEGDINGFIQSKSTGREPPAPVPYQNYYDREVTPLIGSPSIQPSCGVIKRFSGLLHGSPKTTPSAPAASTETLTPTPERNELVYASIEVQATQGNLNSSAQDYRALYDYTAQNSDELDISAGDILAVILEGEDGWWTVERNGQRGFVPGSYLEKL
partner: B1 partner
B3: Tyrosine-protein phosphatase non-receptor type 18 (Mus musculus), Q61152 (parent)
chain: B1 partner
partner: B1 chain
B4: Tyrosine-protein phosphatase non-receptor type 18 (Mus musculus), Q61152 (parent)
chain: B1 partner

Variants of: B1
Settings: with ptn18_mouse Ptpn18, Q61152

Variant	effect of a mutation on the interaction
W232A	disrupting interaction

Variants of: B2
Settings: with ptn18_mouse Ptpn18, Q61152

Variant	effect of a mutation on the interaction
W232A	disrupting interaction

Variants of: B3
Settings: with ppip2_mouse Pstpip2, Q99M15

Variant	effect of a mutation on the interaction
W450A	decreasing interaction

Variants of: B3
Settings: with ppip2_mouse Pstpip2, Q99M15
Remark: another data set of the same source

Variant	effect of a mutation on the interaction
R444A	decreasing interaction

Variants of: B4
Settings: with ppip1_mouse Pstpip1, P97814

Variant	effect of a mutation on the interaction
W450A	decreasing interaction

Variants of: B4
Settings: with ppip1_mouse Pstpip1, P97814
Remark: another data set of the same source

Variant	effect of a mutation on the interaction
R444A	decreasing interaction
